Assay results as given in PMC7155755, “Binding of the Human 14-3-3 Isoforms to Distinct Sites in the Leucine-Rich Repeat Kinase 2” (Frontiers in Neuroscience, 2020).
Like-named read-outs stand apart in the source and are kept apart here. Values belong to the molecule of their own block, whether it stands above or below them. Square brackets hold non-standard residues; d marks the D form. Ends that are not written are not given here. fluorescein = N-terminal fluorescein label; pT = C[C@@H](OP(=O)(O)O)[C@H](N)C(=O)O

Key:
14-3-3γ = 14-3-3γ (UniProt P61981); assay: fluorescence polarization direct binding; settings: reference: unphosphorylated T2524 peptide; sites T2524
14-3-3β = 14-3-3β (UniProt P31946); assay: fluorescence polarization direct binding; settings: reference: unphosphorylated T2524 peptide; sites T2524
14-3-3σ = 14-3-3σ (UniProt P31947); assay: fluorescence polarization direct binding; settings: reference: unphosphorylated T2524 peptide; sites T2524
14-3-3θ = 14-3-3θ (UniProt P27348); assay: fluorescence polarization direct binding; settings: reference: unphosphorylated T2524 peptide; sites T2524
14-3-3η = 14-3-3η (UniProt Q04917); assay: fluorescence polarization direct binding; settings: reference: unphosphorylated T2524 peptide; sites T2524
14-3-3ε = 14-3-3ε (UniProt P62258); assay: fluorescence polarization direct binding; settings: reference: unphosphorylated T2524 peptide; sites T2524
14-3-3ζ = 14-3-3ζ (UniProt P63104); assay: fluorescence polarization direct binding; settings: reference: unphosphorylated T2524 peptide; sites T2524
pS910/pS935 [1] = assay: fluorescence polarisation; direct binding; dilution series of 14-3-3 isoform (at least 5 μM down to picomolar) mixed with 1 nM fluorescein-labelled peptide; 20 mM MOPS pH 7, 150 mM NaCl, 0.005% CHAPS; 384-well plates
pS910/pS935, sequence (Q5S007 906-940): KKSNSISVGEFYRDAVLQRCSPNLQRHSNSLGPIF

Q930R/pS935 = assay: as above
pS1444 = assay: as above
pS910/pS935 [2] = assay: as above; remark: listed apart in the source
R1441C/pS1444 = target: T1, R1441C/pS1444 (R1441C (stands in the printed letters)); assay: as above
T1 construct: LRRK2-derived peptide of the Roc domain with the familial PD mutation R1441C, phosphorylated at S1444; source: synthetic peptide (Peps4LS GmbH)
T1 peptide: fluorescein-LFNIKACAS[pS]SPVILVGT

[3] = target: LRRK2 pS910/pS935 peptide (Homo sapiens, UniProt Q5S007)
LRRK2 pS910/pS935 peptide, sequence (Q5S007 whole entry, canonical isoform): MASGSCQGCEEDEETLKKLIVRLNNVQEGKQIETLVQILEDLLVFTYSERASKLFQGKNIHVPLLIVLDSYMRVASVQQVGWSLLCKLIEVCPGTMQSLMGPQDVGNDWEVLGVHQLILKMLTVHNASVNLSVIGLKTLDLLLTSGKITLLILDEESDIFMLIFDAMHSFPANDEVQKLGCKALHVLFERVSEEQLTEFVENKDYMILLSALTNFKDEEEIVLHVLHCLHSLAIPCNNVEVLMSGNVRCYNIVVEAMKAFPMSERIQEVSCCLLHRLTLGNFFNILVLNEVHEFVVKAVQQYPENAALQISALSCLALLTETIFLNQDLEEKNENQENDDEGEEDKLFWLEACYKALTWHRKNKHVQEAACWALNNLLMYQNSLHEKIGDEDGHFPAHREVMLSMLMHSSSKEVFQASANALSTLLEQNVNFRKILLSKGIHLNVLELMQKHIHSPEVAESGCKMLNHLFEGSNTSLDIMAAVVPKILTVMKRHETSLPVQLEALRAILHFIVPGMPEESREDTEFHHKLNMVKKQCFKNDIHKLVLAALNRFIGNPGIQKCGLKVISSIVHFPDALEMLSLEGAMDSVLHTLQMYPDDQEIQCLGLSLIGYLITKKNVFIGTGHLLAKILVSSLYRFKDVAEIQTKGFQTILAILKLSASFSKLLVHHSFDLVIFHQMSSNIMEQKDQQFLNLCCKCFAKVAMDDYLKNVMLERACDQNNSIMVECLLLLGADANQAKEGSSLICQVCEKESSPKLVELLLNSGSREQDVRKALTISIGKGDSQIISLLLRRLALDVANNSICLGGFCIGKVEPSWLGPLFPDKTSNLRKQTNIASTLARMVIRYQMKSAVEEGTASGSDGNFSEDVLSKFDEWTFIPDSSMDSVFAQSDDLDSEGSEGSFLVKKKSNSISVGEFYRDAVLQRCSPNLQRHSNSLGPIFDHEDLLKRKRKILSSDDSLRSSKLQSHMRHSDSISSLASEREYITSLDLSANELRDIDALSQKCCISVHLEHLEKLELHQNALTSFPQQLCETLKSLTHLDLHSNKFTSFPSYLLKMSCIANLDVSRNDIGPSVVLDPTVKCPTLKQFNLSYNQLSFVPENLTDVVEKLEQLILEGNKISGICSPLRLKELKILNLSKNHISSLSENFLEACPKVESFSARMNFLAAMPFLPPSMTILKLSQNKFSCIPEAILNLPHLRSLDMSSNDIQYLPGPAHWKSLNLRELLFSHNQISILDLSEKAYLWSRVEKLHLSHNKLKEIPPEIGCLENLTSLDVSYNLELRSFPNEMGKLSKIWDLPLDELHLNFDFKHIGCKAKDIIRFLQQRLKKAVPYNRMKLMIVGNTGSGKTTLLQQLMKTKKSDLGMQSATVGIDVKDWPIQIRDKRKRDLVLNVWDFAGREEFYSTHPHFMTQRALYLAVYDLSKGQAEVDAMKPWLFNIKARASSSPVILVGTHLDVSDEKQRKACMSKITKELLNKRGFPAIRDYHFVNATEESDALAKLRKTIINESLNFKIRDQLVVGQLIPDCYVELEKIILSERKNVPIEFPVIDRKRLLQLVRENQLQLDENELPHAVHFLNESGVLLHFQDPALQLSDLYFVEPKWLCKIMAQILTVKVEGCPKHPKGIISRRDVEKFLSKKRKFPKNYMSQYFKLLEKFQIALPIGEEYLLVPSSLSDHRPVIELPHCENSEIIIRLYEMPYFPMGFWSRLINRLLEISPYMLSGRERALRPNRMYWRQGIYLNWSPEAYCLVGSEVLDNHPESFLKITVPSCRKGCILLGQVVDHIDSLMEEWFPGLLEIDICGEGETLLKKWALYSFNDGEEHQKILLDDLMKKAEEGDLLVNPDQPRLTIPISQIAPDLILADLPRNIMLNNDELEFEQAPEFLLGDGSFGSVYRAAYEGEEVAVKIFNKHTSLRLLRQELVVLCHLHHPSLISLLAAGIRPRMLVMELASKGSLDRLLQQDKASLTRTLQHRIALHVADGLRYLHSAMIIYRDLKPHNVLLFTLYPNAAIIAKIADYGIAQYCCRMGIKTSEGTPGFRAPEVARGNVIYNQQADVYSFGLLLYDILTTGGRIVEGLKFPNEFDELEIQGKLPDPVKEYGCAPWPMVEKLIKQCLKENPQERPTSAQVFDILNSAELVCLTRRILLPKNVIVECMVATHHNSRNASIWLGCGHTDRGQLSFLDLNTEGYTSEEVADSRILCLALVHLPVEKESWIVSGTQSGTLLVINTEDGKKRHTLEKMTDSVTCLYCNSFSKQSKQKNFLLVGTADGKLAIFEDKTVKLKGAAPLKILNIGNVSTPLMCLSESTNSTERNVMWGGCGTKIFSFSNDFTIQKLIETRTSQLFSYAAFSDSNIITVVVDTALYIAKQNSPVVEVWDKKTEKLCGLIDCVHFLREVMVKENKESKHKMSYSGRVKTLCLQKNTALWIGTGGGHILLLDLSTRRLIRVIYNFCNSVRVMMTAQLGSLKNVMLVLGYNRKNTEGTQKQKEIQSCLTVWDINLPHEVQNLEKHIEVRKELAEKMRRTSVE

[4] = target: T2, human 14-3-3 isoform ε (recombinant, MBP tag removed) (human, UniProt P62258 1-255); assay: fluorescence polarisation; direct binding; dilution series of 14-3-3 isoform (at least 5 μM down to picomolar) mixed with 1 nM fluorescein-labelled peptide; 20 mM MOPS pH 7, 150 mM NaCl, 0.005% CHAPS; 384-well plates; settings: both partners purified
T2 construct: 14-3-3 epsilon, human; Expressed from pMAL2CX plasmids; also called 14-3-3ε; source: E. coli BL21DE3, purified (maltose-agarose, Factor Xa, anion exchange)
T2 sequence (looked up): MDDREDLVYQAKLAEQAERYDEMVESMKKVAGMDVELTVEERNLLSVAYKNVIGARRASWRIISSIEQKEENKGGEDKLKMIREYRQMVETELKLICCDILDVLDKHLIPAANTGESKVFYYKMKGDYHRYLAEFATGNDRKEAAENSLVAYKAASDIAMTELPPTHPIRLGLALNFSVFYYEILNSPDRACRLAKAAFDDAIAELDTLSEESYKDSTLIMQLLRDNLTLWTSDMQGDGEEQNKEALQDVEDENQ

[5] = target: T3, human 14-3-3 isoform σ (recombinant, MBP tag removed) (human, UniProt P31947 1-248); assay: as above; settings: both partners purified
T3 construct: 14-3-3 sigma, human; Expressed from pMAL2CX plasmids; also called 14-3-3σ; source: E. coli BL21DE3, purified (maltose-agarose, Factor Xa, anion exchange)
T3 sequence (looked up): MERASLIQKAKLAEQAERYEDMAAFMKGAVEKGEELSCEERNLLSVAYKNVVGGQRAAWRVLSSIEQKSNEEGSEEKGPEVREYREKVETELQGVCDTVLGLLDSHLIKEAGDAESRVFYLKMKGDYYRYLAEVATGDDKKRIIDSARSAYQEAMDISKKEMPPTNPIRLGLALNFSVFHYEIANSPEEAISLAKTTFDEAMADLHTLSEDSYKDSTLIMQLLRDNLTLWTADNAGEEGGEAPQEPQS

[6] = target: T4, human 14-3-3 isoform β (recombinant, MBP tag removed) (human, UniProt P31946 1-246); assay: as above; settings: both partners purified
T4 construct: 14-3-3 beta, human; Expressed from pMAL2CX plasmids; also called 14-3-3β; source: E. coli BL21DE3, purified (maltose-agarose, Factor Xa, anion exchange)
T4 sequence (looked up): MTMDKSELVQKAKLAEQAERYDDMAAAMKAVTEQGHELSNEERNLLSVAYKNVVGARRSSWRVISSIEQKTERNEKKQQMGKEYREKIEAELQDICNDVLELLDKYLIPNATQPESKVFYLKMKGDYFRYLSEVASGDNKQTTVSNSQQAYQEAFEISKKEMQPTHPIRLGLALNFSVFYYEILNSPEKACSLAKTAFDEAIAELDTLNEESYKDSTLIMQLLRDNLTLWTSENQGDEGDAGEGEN

[7] = target: T5, human 14-3-3 isoform θ (recombinant, MBP tag removed) (human, UniProt P27348 1-245); assay: as above; settings: both partners purified
T5 construct: 14-3-3 theta, human; Expressed from pMAL2CX plasmids; also called 14-3-3θ; source: E. coli BL21DE3, purified (maltose-agarose, Factor Xa, anion exchange)
T5 sequence (looked up): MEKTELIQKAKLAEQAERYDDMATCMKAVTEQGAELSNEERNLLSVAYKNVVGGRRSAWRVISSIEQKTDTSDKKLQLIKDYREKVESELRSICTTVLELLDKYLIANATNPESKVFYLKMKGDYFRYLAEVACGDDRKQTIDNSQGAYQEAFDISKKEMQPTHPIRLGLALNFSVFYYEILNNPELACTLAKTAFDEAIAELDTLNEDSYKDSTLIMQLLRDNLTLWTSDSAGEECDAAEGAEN

[8] = target: T6, human 14-3-3 isoform η (recombinant, MBP tag removed) (human, UniProt Q04917 1-246); assay: as above; settings: both partners purified
T6 construct: 14-3-3 eta, human; Expressed from pMAL2CX plasmids; also called 14-3-3η; source: E. coli BL21DE3, purified (maltose-agarose, Factor Xa, anion exchange)
T6 sequence (looked up): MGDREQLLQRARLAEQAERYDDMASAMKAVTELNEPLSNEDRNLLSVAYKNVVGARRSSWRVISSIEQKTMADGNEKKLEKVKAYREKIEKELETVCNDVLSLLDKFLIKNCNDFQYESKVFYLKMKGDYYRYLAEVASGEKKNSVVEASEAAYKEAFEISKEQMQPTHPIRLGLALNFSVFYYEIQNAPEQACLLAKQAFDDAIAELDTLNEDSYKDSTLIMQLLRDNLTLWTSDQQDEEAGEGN

[9] = target: T7, human 14-3-3 isoform ζ (recombinant, MBP tag removed) (human, UniProt P63104 1-245); assay: as above; settings: both partners purified
T7 construct: 14-3-3 zeta, human; Expressed from pMAL2CX plasmids; also called 14-3-3ζ; source: E. coli BL21DE3, purified (maltose-agarose, Factor Xa, anion exchange)
T7 sequence (looked up): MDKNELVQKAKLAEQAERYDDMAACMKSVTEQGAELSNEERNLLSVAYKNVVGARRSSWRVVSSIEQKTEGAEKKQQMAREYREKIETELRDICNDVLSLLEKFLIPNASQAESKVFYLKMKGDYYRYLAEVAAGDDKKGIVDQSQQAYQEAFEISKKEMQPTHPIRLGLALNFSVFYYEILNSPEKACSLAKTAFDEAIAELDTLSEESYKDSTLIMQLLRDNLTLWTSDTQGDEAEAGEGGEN

Molecule: human 14-3-3 isoform γ (recombinant, MBP tag removed) (from UniProt P61981 1-247) (natural protein)
Kd (pS910/pS935 [1]): 4.8 nM
Kd (Q930R/pS935): 11.1 nM
Kd (pS1444): 106 nM
Kd (pS910/pS935 [2]): 3.2 nM
fold decrease in affinity against pS1444 (R1441C/pS1444): > 30 fold

B1: 14-3-3σ (protein)
chain: T3 sequence (looked up)
modifications: pS910+pS935
Kd [3]: 61 nM

Next, values leading:

binding against the reference (14-3-3γ): gained
binding against the reference (14-3-3β): gained
binding against the reference (14-3-3σ): gained
binding against the reference (14-3-3θ): gained
binding against the reference (14-3-3η): gained
binding against the reference (14-3-3ε): gained
binding against the reference (14-3-3ζ): gained
Molecule: LRRK2 (leucine-rich repeat kinase 2) C-terminus (from UniProt Q5S007) pT2524 peptide

binding result [4]: binds
binding result [5]: binds
binding result [6]: binds
binding result [7]: binds
binding result [8]: binds
binding result [9]: binds
B2: pT2524 (peptide)
peptide: fluorescein-HIEVRKELAEKMRR[pT]SVE
notes: LRRK2-derived peptide of the very C-terminus, phosphorylated at T2524; source: synthetic peptide (Peps4LS GmbH)
